{
  "source": "patent US8105802B2",
  "about": "“Method of producing microbial transglutaminase” (Ajinomoto Co., Inc., priority 2003, dated 2012)",
  "key": {"SVP70": {"system": "SVP70", "experiment": "Inhibitory activities of various compounds to SVP70 (cleavage of peptide GPSFRAPDS)", "format": "biochemical, Streptoverticillium mobaraense", "conditions": "analogously to (3)-vi); concentrations shown in FIG. 5", "description": "(§1) The enzyme solution was added to 20 mM sodium phosphate buffer containing peptide GPSFRAPDS (Peptide Institute) (SEQ ID NO: 11) to yield 170 μl of total liquid volume, and it was reacted at 30° C. for 10 minutes, followed by heating at 95° C. for 5 minutes to terminate the reaction. 80 μl of this solution was analyzed by HPLC under the following conditions and its activity was calculated based on the decreased amount of the substrate.\n(§2) To 20 mM sodium phosphate buffer (pH 7.0) containing various compounds at the concentrations shown in FIG. 5, the purified enzyme solution was added and left for 60 minutes at room temperature. Then Gly-Pro-Ser-Phe-Arg-Ala-Pro-Asp-Ser (SEQ ID NO: 11) was added as a substrate and reacted for 10 minute at 30° C. The relative activity by adding each compound was calculated based on the Gly-Pro-Ser-Phe-Arg-Ala-Pro-Asp-Ser (SEQ ID NO: 11) cleavage activity in the absence of compounds as 100%.\nThe inhibitory activities of various compounds to SVP70 were examined analogously to (3)-vi)."}, "SVP35": {"system": "SVP35", "experiment": "Inhibitory activities of various compounds to SVP35 (cleavage of peptide GPSFRAPDS)", "format": "biochemical, Streptoverticillium mobaraense", "conditions": "concentrations shown in FIG. 5; 60 minutes at room temperature, then substrate 10 minute at 30° C., pH 7.0", "description": "as §1, §2"}, "insulin B and pro-MTG": {"system": "insulin B and pro-MTG", "experiment": "Substrate specificity (cleavage points, HPLC and sequencing of fragments)", "format": "biochemical", "conditions": "30° C., 2 hours, pH 7.5", "description": "1 mg/ml of insulin B solution and pro-MTG solution prepared in 20 mM Tris-HCl buffer (pH 7.5) containing 5 mM calcium chloride and 0.01 mM zinc chloride was used as a substrate, and an enzyme solution was added to the solution to react at 30° C. for 2 hours, and then peptide fragments were separated by HPLC under the following conditions:\nThe amino acid sequences of the obtained peptide fragments were analyzed by PPSQ-10 (Shimadzu Co. Ltd.) to characterize the sequences of the cleavage points for SVP35.\nThe substrate specificity was examined similarly as described in (3)-i)."}, "[1]": {"system": "Gly-Pro-Ser-Phe-Arg-Ala-Pro-Asp-Ser (SEQ ID NO: 11)", "experiment": "pH stability of the protease", "format": "physicochemical", "description": "To 10 μl of SVP35 purified enzyme solution, 40 μl of each pH of 0.15 M GTA buffer from pH 3 to pH 10 was added, left at 4° C. overnight, followed by addition of 0.1 M sodium phosphate buffer (pH 7.0) to the liquid volume of 400 μl, and was adjusted to pH 7.0. To these enzyme solutions, Gly-Pro-Ser-Phe-Arg-Ala-Pro-Asp-Ser (SEQ ID NO: 11) was added as a substrate, and reacted at pH 7.0, at 30° C. for 10 minutes.\nThe pH stability was examined similarly to (3)-iii)."}, "[2]": {"system": "Gly-Pro-Ser-Phe-Arg-Ala-Pro-Asp-Ser (SEQ ID NO: 11)", "experiment": "Optimum temperature of the protease", "format": "biochemical", "description": "To the purified enzyme solution diluted with 20 mM Tris-HCl buffer (pH 7.5) containing 5 mM calcium chloride and 0.01 mM zinc chloride Gly-Pro-Ser-Phe-Arg-Ala-Pro-Asp-Ser (SEQ ID NO: 11) was added and reacted at pH 7.0, between 5° C. and 65° C. for 10 minutes. As a result, it was shown that the Optimum temperature of SVP35 was about 45° C. and it had high activity within the range of 40° C. to 50° C.\nThe Optimum temperature of SVP70 was examined similarly as (3)-iv). As a result, it was shown that the Optimum temperature of SVP70 was within the range from about 50° C. to 55° C., especially around 55° C. (see FIG. 3)."}, "pro-MTG": {"system": "pro-MTG", "experiment": "Conversion of pro-MTG into active MTG, substrate:enzyme 200:1 (SDS-PAGE, hydroxamate method)", "format": "biochemical, Streptoverticillium mobaraense", "conditions": "substrate:enzyme=200:1, 30° C.", "description": "Using pro-MTG (1 mg/ml) expressed by Corynebacterium glutamicum as a purified substrate, the neutral protease (SVP35, SVP70) from Streptoverticillium mobaraense or the neutral metalloprotease SGMP II from Streptomyces griseus was mixed in the ratio of the substrate:the enzyme=200:1, the mixture was reacted at 30° C. After 0, 1, 2, 4, 7, 20 hours, the reaction mixture was sequentially picked up, and the aliquots of the reaction mixture were mixed with SDS-PAGE sample buffer and heated at 95° C. for 3 minutes, and then subjected to SDS-PAGE according to Laemmli's method (Nature, 227, 680-685 (1970)). […] In addition, SGMP II was purified from actinase (Kakenseiyaku Co. Ltd.) according to the reference method (J. Biocem., Vol. 110, p. 339-344, 1991)."}, "[3]": {"system": "Gly-Pro-Ser-Phe-Arg-Ala-Pro-Asp-Ser (SEQ ID NO: 11)", "experiment": "Optimum pH of the protease (peptide cleavage in GTA buffer pH 3 to pH 10)", "format": "biochemical", "description": "as §1\nIn 0.15 M GTA buffer (buffered by 3,3-dimethyl glutaric acid, Tris (hydroxy methyl) amino methane, 2-amino-2-methyl-1,3-propanediol) from pH 3 to pH 10, SVP35 was allowed to act on Gly-Pro-Ser-Phe-Arg-Ala-Pro-Asp-Ser (SEQ ID NO: 11) as a substrate at 30° C. for 10 minutes.\nThe Optimum pH of SVP70 was examined similarly as (3)-ii)."}, "[4]": {"system": "Gly-Pro-Ser-Phe-Arg-Ala-Pro-Asp-Ser (SEQ ID NO: 11)", "experiment": "Temperature stability of the protease", "format": "physicochemical", "conditions": "15 minutes; activity treated at 4° C. defined as 100%", "description": "To 10 μl of the purified enzyme solution, 40 μl of 20 mM Tris-HCl buffer (pH 7.5) containing 5 mM calcium chloride and 0.01 mM zinc chloride was added to treat at 4° C. or at from 30° C. to 70° C. for 15 minutes, and then cooled by ice, added 250 μl of 20 mM sodium phosphate buffer (pH 7.0). To this enzyme solution, Gly-Pro-Ser-Phe-Arg-Ala-Pro-Asp-Ser (SEQ ID NO: 11) was added as a substrate and reacted at 30° C. for 5 minutes. When the activity treated at 4° C. was defined as 100%, the remaining activity at each temperature was calculated. […] (see FIG. 4)."}, "[5]": {"conditions": "activity at pH 7.0 defined as 100%"}},
  "data": [
    {"molecule": "O[C@H](CS)[C@H](O)CS", "note": "(racemic) [dithiothreitol]", "values": [
      {"measurement": "inhibition of SVP70 activity", "setting": "SVP70", "value": "strong inhibitory action"}
    ]},
    {"molecule": "c1cnc2c(c1)ccc1cccnc12", "note": "[1,10-phenanthroline]", "values": [
      {"measurement": "inhibition of SVP70 activity", "setting": "SVP70", "value": "strong inhibitory action"},
      {"measurement": "inhibition of SVP35 Gly-Pro-Ser-Phe-Arg-Ala-Pro-Asp-Ser cleavage activity", "setting": "SVP35", "value": "strongly inhibited"}
    ]},
    {"molecule": "O=C(O)CN(CCN(CC(=O)O)CC(=O)O)CC(=O)O", "note": "[ethylene diamine tetraacetic acid]", "values": [
      {"measurement": "inhibition of SVP70 activity", "setting": "SVP70", "value": "strong inhibitory action"},
      {"measurement": "inhibition of SVP35 Gly-Pro-Ser-Phe-Arg-Ala-Pro-Asp-Ser cleavage activity", "setting": "SVP35", "value": "strongly inhibited"}
    ]},
    {"molecule": "CC(C)C[C@H](NP(=O)(O)O[C@@H]1O[C@@H](C)[C@H](O)[C@@H](O)[C@H]1O)C(=O)N[C@@H](Cc1c[nH]c2ccccc12)C(=O)O", "note": "[phosphoramidon]", "values": [
      {"measurement": "inhibition of SVP70 activity", "setting": "SVP70", "value": "strong inhibitory action"},
      {"measurement": "inhibition of SVP35 Gly-Pro-Ser-Phe-Arg-Ala-Pro-Asp-Ser cleavage activity", "setting": "SVP35", "value": "strongly inhibited"}
    ]},
    {"molecule": "NC(N)=O", "note": "[urea]", "values": [
      {"measurement": "inhibition of SVP70 activity", "setting": "SVP70", "value": "strong inhibitory action"}
    ]},
    {"molecule": "Streptomyces subtilisin inhibitor (SSI): Streptomyces subtilisin inhibitor derived from actinomycetes (protein) DAPSALYAPSALVLTVGKGVSATTAAPERAVTLTCAPGPSGTHPAAGSACADLAAVGGDLNALTRGEDVMCPMVYDPVLLTVDGVWQGKRVSYERVFSNECEMNAHGSSVFAF", "values": [
      {"measurement": "inhibition of SVP70 activity", "setting": "SVP70", "value": "strong inhibitory action"},
      {"measurement": "inhibition of SVP35 Gly-Pro-Ser-Phe-Arg-Ala-Pro-Asp-Ser cleavage activity", "setting": "SVP35", "value": "strongly inhibited"}
    ]},
    {"molecule": "SVP35: neutral metalloprotease of about 35,000 from the cell surface of Streptoverticillium mobaraense IFO13819 (SEQ ID NO: 6) (protein, Streptoverticillium mobaraense) VLRLTATPRTTALRAAALVASAAMVVVGVQTGSASASGDRDSGGLPLTLSASQRTAAIQEAQSGASATAAKIGLSGKEKLIARDVVKDADGTVHTRYERTYDGLPVLGGDLIVHEAKAGRSVTKANDATIALPSTDASLAPAAAKKSALSAAADQKTAKADGQAPRKVVWAAQGKPVLAYETVVTGVQKDGTPSELHVITDAASGKKLYQYEAIETGTGTSTYSGTVPLTTTKSGSQYQLNDGARGGHKTYDLNQGTSGTGSLFTNSTDTWGGGRQTAGVDAHYGAAVTWDFYKNVFGRNGIRNDGKAAYSRVHYGNSYVNAFWSDSCFCMTYGDGQNNKNPLTALDVAAHEMSHGVTAATAKLVYSGESGGLNEATSDIFGTAVEFYANNKTDVGDYLIGEKINIYGDGKPLRYMDKPSKDGKSKDSWYSGIGGVDVHYSSGPANHFFYLLSEGSGKKTINGVDYDSPTADGSKVTGIGRDKAQKIWYKALTTQFTSNTNYAKARTGTLNAAASLYGNNSAEYKAVAAAWSAINVK", "values": [
      {"measurement": "amino acids recognized at the cleavage site", "setting": "insulin B and pro-MTG", "value": "aromatic amino acids and hydrophobic amino acids with bulky side-chains positioned at P′ 1"},
      {"measurement": "cleavage points (residue before which the substrate is cleaved)", "setting": "insulin B and pro-MTG", "value": "especially Phe, often Leu, sometimes Tyr, Trp, Ile, Val"},
      {"measurement": "activity after treatment at pH 4-10", "setting": "[1]; activity at pH 4.0 defined as 100%", "value": "≥ 90", "unit": "%"},
      {"measurement": "pH Stability (stable pH range)", "setting": "[1]; left at 4° C. overnight at each pH, then reacted at pH 7.0, 30° C., 10 minutes", "value": "4-10"},
      {"measurement": "activity within 40° C. to 50° C. relative to that at 45° C.", "setting": "[2]; pH 7.0, 10 minutes", "value": "≥ 80", "unit": "%"},
      {"measurement": "Optimum temperature", "setting": "[2]; pH 7.0, between 5° C. and 65° C., 10 minutes", "value": "about 45 °C"},
      {"measurement": "transglutaminase (TG) activity of the picked up fraction, hydroxamate method", "setting": "pro-MTG", "value": "sufficient activity was confirmed"},
      {"measurement": "conversion of pro-MTG to the mature form (SDS-PAGE)", "setting": "pro-MTG; 0-20 hours", "value": "converted to the mature forms"},
      {"measurement": "reduction of produced MTG after long-term reaction", "setting": "pro-MTG; up to 20 hours", "value": "not reduced even after a long-term reaction"},
      {"measurement": "Optimum pH", "setting": "[3]; 0.15 M GTA buffer pH 3 to pH 10, 30° C., 10 minutes", "value": "around 7.0"},
      {"measurement": "activity at pH 6.0-8.0", "setting": "[3]; [5]", "value": "≥ 70", "unit": "%"},
      {"measurement": "activity at pH 6.5-7.5", "setting": "[3]; [5]", "value": "≥ 80", "unit": "%"},
      {"measurement": "remaining activity after treatment at 50° C.", "setting": "[4]", "value": 80, "unit": "%"},
      {"measurement": "remaining activity after treatment at 60° C.", "setting": "[4]", "value": "lost its activity"}
    ]}
  ]
}
